Literature values, collected in PMC4465451.

Biological target: His5 (UniProt position 30, DRVYIHPFHLV)
Assay: mass spectrometry
Conditions: Free peptide, taken as fully solvent accessible

Angiotensin III
pKa: 6.50
